Measured values reported in publication PMC1702487.

Columns and labels:
Assay in all cases: AUC
[1] = molecular target: I-CreI 28K30N33H38Q40S44K68E70G75N (combinatorial mutant KNHQS/KEG) (Chlamydomonas reinhardti)
[2] = molecular target: I-CreI 28K30N33H38Q40S44K68A70S75N (combinatorial mutant KNHQS/KAS) (Chlamydomonas reinhardti)
[3] = molecular target: I-CreI 28N30N33S38R40K44A68R70R75N (combinatorial mutant NNSRK/ARR) (Chlamydomonas reinhardti)
[4] = molecular target: I-CreI 28N30N33S38R40K44A68S70R75N (combinatorial mutant NNSRK/ASR) (Chlamydomonas reinhardti)

“I-CreI 28K30N33H38Q40S44K68E70G75N (combinatorial mutant KNHQS/KEG) (enzyme)” showed a stoichiometry N [1] of 2.

“I-CreI 28K30N33H38Q40S44K68A70S75N (combinatorial mutant KNHQS/KAS) (enzyme)” showed a stoichiometry N [2] of 2.

“I-CreI 28N30N33S38R40K44A68R70R75N (combinatorial mutant NNSRK/ARR) (enzyme)” showed a stoichiometry N [3] of 2.

Substance “I-CreI 28N30N33S38R40K44A68S70R75N (combinatorial mutant NNSRK/ASR) (enzyme)” has a stoichiometry N [4] of 2.
